Consider six variants from IntAct's records for PubMed 28164238.

The chains are these.
B1: T-box transcription factor TBX5 (Mus musculus), P70326 (parent)
chain: MADTDEGFGLARTPLEPDSKDRSCDSKPESALGAPSKSPSSPQAAFTQQGMEGIKVFLHERELWLKFHEVGTEMIITKAGRRMFPSYKVKVTGLNPKTKYILLMDIVPADDHRYKFADNKWSVTGKAEPAMPGRLYVHPDSPATGAHWMRQLVSFQKLKLTNNHLDPFGHIILNSMHKYQPRLHIVKADENNGFGSKNTAFCTHVFPETAFIAVTSYQNHKITQLKIENNPFAKGFRGSDDLELHRMSRMQSKEYPVVPRSTVRHKVTSNHSPFSSETRALSTSSNLGSQYQCENGVSGPSQDLLPPPNPYPLAQEHSQIYHCTKRKDEECSSTEHPYKKPYMETSPSEEDTFYRSGYPQQQGLSTSYRTESAQRQACMYASSAPPSEPVPSLEDISCNTWPSMPSYSSCTVTTVQPMDRLPYQHFSAHFTSGPLVPRLAGMANHGSPQLGEGMFQHQTSVAHQPVVRQCGPQTGLQSPGGLQPPEFLYTHGVPRTLSPHQYHSVHGVGMVPEWSENS

Variants of B1 are the subject of assay [1]. Conditions: with klf13_mouse Klf13, Q9JJZ6.
Variants of B1 are the subject of assay [2]. The note with it: with nkx25_mouse Nkx2-5, P42582.
Sequence of nkx25_mouse Nkx2-5, P42582 (P42582 whole entry): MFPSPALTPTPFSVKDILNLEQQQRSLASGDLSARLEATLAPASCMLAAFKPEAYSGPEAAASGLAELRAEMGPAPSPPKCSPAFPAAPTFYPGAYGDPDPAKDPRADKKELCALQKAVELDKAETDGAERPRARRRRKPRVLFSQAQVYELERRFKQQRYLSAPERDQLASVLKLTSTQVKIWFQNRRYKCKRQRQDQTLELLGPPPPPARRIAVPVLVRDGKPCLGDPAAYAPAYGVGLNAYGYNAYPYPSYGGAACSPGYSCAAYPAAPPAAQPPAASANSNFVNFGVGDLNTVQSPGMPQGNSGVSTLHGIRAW

Sequence of klf13_mouse Klf13, Q9JJZ6 (Q9JJZ6 whole entry): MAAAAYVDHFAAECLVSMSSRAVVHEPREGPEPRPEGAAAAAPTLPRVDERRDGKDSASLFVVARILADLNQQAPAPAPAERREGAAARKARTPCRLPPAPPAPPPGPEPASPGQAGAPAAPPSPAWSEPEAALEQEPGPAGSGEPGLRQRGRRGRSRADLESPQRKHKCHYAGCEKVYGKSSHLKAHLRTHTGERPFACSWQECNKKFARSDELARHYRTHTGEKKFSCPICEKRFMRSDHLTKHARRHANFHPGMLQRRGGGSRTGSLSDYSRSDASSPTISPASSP

Take MADTDEGFGLARTPLEPDSKDRSCDSKPESALGAPSKSPSSPQAAFTQQGMEGIKVFLHERELWLKFHEVGTEMIITKAGRRMFPSYKVKVTGLNPKTKYILLMDIVPADDHRYKFADNKWSVTGKAEPAMPGRLYVHPDSPATGAHWMRQLVSFQKLKLTNNHLDPFGHIILNSMHKYQPRLHIVKADENNGFASKNTAFCTHVFPETAFIAVTSYQNHKITQLKIENNPFAKGFRGSDDLELHRMSRMQSKEYPVVPRSTVRHKVTSNHSPFSSETRALSTSSNLGSQYQCENGVSGPSQDLLPPPNPYPLAQEHSQIYHCTKRKDEECSSTEHPYKKPYMETSPSEEDTFYRSGYPQQQGLSTSYRTESAQRQACMYASSAPPSEPVPSLEDISCNTWPSMPSYSSCTVTTVQPMDRLPYQHFSAHFTSGPLVPRLAGMANHGSPQLGEGMFQHQTSVAHQPVVRQCGPQTGLQSPGGLQPPEFLYTHGVPRTLSPHQYHSVHGVGMVPEWSENS [G195A]: the “effect of a mutation on the interaction” value in assay [1] was “with no effect”; in assay [2] it was “decreasing interaction strength”.

MADTDEGFGLARTPLEPDSKDRSCDSKPESALGAPSKSPSSPQAAFTQQGMEGTKVFLHERELWLKFHEVGTEMIITKAGRRMFPSYKVKVTGLNPKTKYILLMDIVPADDHRYKFADNKWSVTGKAEPAMPGRLYVHPDSPATGAHWMRQLVSFQKLKLTNNHLDPFGHIILNSMHKYQPRLHIVKADENNGFGSKNTAFCTHVFPETAFIAVTSYQNHKITQLKIENNPFAKGFRGSDDLELHRMSRMQSKEYPVVPRSTVRHKVTSNHSPFSSETRALSTSSNLGSQYQCENGVSGPSQDLLPPPNPYPLAQEHSQIYHCTKRKDEECSSTEHPYKKPYMETSPSEEDTFYRSGYPQQQGLSTSYRTESAQRQACMYASSAPPSEPVPSLEDISCNTWPSMPSYSSCTVTTVQPMDRLPYQHFSAHFTSGPLVPRLAGMANHGSPQLGEGMFQHQTSVAHQPVVRQCGPQTGLQSPGGLQPPEFLYTHGVPRTLSPHQYHSVHGVGMVPEWSENS [I54T]: the “effect of a mutation on the interaction” value in assay [1] and in assay [2] was “with no effect” throughout.

MADTDEGFGLARTPLEPDSKDRSCDSKPESALGAPSKSPSSPQAAFTQQGMEGIKVFLHERELWLKFHEVGTEMIITKAQRRMFPSYKVKVTGLNPKTKYILLMDIVPADDHRYKFADNKWSVTGKAEPAMPGRLYVHPDSPATGAHWMRQLVSFQKLKLTNNHLDPFGHIILNSMHKYQPRLHIVKADENNGFGSKNTAFCTHVFPETAFIAVTSYQNHKITQLKIENNPFAKGFRGSDDLELHRMSRMQSKEYPVVPRSTVRHKVTSNHSPFSSETRALSTSSNLGSQYQCENGVSGPSQDLLPPPNPYPLAQEHSQIYHCTKRKDEECSSTEHPYKKPYMETSPSEEDTFYRSGYPQQQGLSTSYRTESAQRQACMYASSAPPSEPVPSLEDISCNTWPSMPSYSSCTVTTVQPMDRLPYQHFSAHFTSGPLVPRLAGMANHGSPQLGEGMFQHQTSVAHQPVVRQCGPQTGLQSPGGLQPPEFLYTHGVPRTLSPHQYHSVHGVGMVPEWSENS [G80Q]: the “effect of a mutation on the interaction” value in assay [1] and in assay [2] was “decreasing interaction strength” throughout.

Consider MADTDEGFGLARTPLEPDSKDRSCDSKPESALGAPSKSPSSPQAAFTQQGMEGIKVFLHERELWLKFHEVGTEMIITKAGRRMFPSYKVKVTGLNPKTKYILLMDIVPADDHRYKFADNKWSVTGKAEPAMPGRLYVHPDSPAIGAHWMRQLVSFQKLKLTNNHLDPFGHIILNSMHKYQPRLHIVKADENNGFGSKNTAFCTHVFPETAFIAVTSYQNHKITQLKIENNPFAKGFRGSDDLELHRMSRMQSKEYPVVPRSTVRHKVTSNHSPFSSETRALSTSSNLGSQYQCENGVSGPSQDLLPPPNPYPLAQEHSQIYHCTKRKDEECSSTEHPYKKPYMETSPSEEDTFYRSGYPQQQGLSTSYRTESAQRQACMYASSAPPSEPVPSLEDISCNTWPSMPSYSSCTVTTVQPMDRLPYQHFSAHFTSGPLVPRLAGMANHGSPQLGEGMFQHQTSVAHQPVVRQCGPQTGLQSPGGLQPPEFLYTHGVPRTLSPHQYHSVHGVGMVPEWSENS [T144I], for which the “effect of a mutation on the interaction” value in assay [1] and in assay [2] was “decreasing interaction strength” throughout.

MADTDEGFGLARTPLEPDSKDRSCDSKPESALGAPSKSPSSPQAAFTQQGMEGIKVFLHERELWLKFHEVGTEMIITKAGRRMFPSYKVKVTGLNPKTKYIPLMDIVPADDHRYKFADNKWSVTGKAEPAMPGRLYVHPDSPATGAHWMRQLVSFQKLKLTNNHLDPFGHIILNSMHKYQPRLHIVKADENNGFGSKNTAFCTHVFPETAFIAVTSYQNHKITQLKIENNPFAKGFRGSDDLELHRMSRMQSKEYPVVPRSTVRHKVTSNHSPFSSETRALSTSSNLGSQYQCENGVSGPSQDLLPPPNPYPLAQEHSQIYHCTKRKDEECSSTEHPYKKPYMETSPSEEDTFYRSGYPQQQGLSTSYRTESAQRQACMYASSAPPSEPVPSLEDISCNTWPSMPSYSSCTVTTVQPMDRLPYQHFSAHFTSGPLVPRLAGMANHGSPQLGEGMFQHQTSVAHQPVVRQCGPQTGLQSPGGLQPPEFLYTHGVPRTLSPHQYHSVHGVGMVPEWSENS [L102P]: the “effect of a mutation on the interaction” value in assay [1] and in assay [2] was “decreasing interaction strength” in each case.

In the case of MADTDEGFGLARTPLEPDSKDRSCDSKPESALGAPSKSPSSPQAAFTQQGMEGIKVFLHERELWLKFHEVGTEMIITKAGRRMFPSYKVKVTGLNLKTKYILLMDIVPADDHRYKFADNKWSVTGKAEPAMPGRLYVHPDSPATGAHWMRQLVSFQKLKLTNNHLDPFGHIILNSMHKYQPRLHIVKADENNGFGSKNTAFCTHVFPETAFIAVTSYQNHKITQLKIENNPFAKGFRGSDDLELHRMSRMQSKEYPVVPRSTVRHKVTSNHSPFSSETRALSTSSNLGSQYQCENGVSGPSQDLLPPPNPYPLAQEHSQIYHCTKRKDEECSSTEHPYKKPYMETSPSEEDTFYRSGYPQQQGLSTSYRTESAQRQACMYASSAPPSEPVPSLEDISCNTWPSMPSYSSCTVTTVQPMDRLPYQHFSAHFTSGPLVPRLAGMANHGSPQLGEGMFQHQTSVAHQPVVRQCGPQTGLQSPGGLQPPEFLYTHGVPRTLSPHQYHSVHGVGMVPEWSENS [P96L], the results for the “effect of a mutation on the interaction” value in assay [1] and in assay [2] were “with no effect” and “decreasing interaction strength”, respectively.
